Reference: publication PMC10786891, “Massively parallel profiling of RNA-targeting CRISPR-Cas13d”
Where a chain is given by its changes, count along the chain named. In names and notes the source's numbering stands.

T1: EsCas13d, nuclease-dead (Eubacterium siraeum, UniProt B0MS50, R295A;H300A;R849A;H854A)
T1 sequence: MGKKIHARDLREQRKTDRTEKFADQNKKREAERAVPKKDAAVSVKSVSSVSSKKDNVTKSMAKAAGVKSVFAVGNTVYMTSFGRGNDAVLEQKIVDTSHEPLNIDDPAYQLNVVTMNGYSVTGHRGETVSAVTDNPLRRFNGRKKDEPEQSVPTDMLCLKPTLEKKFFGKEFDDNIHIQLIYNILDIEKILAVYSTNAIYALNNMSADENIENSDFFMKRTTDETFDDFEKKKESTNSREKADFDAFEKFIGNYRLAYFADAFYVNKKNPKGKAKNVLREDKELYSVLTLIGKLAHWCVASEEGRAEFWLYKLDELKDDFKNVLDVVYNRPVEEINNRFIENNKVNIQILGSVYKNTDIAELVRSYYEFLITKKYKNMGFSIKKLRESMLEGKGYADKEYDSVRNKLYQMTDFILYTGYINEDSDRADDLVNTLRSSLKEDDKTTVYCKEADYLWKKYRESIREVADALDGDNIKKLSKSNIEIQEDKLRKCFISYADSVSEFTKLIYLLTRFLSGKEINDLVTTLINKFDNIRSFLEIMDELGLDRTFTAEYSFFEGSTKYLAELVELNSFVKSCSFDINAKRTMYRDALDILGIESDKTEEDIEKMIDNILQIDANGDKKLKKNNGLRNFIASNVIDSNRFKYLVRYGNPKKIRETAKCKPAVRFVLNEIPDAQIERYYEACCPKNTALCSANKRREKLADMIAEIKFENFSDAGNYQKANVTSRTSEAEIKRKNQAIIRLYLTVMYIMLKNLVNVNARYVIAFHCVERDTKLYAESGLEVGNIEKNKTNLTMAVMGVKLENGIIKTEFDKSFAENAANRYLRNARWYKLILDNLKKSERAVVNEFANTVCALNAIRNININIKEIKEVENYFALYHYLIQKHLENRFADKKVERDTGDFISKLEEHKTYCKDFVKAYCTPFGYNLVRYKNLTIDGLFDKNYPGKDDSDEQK

B1: target 1 insC 3' of 18,insU 3' of 2 (mixed)
RNA 1: CACCCGUGCAAAAAUGCAGGGGUCUAAAACUGAGCGGAUAACCUCUCUAUGG
RNA 2: GGGAAUGGAUCCACAUCUACGAAUUCGUACCAUACGAGAGGUUAUCCGCUCUACCGAGAUCGGAAGAGCACACGU
B2: target 1 insU 3' of 17 (mixed)
RNA 1: B1 RNA 1
RNA 2: GGGAAUGGAUCCACAUCUACGAAUUCGUACCAUAGUAGAGGUUAUCCGCUCACCGAGAUCGGAAGAGCACACGU
B3: target 1 U11A,G13A (mixed)
RNA 1: B1 RNA 1
RNA 2: GGGAAUGGAUCCACAUCUACGAAUUCGUACCAUAGAGAAGAUAUCCGCUCACCGAGAUCGGAAGAGCACACGU
B4: target 1 C21A,C22A (mixed)
RNA 1: B1 RNA 1
RNA 2: B3 RNA 2 with C30A, C31A, A39G, A41U
B5: target 1 insU 3' of 9,insU 3' of 5 (mixed)
RNA 1: B1 RNA 1
RNA 2: GGGAAUGGAUCCACAUCUACGAAUUCGUACCAUAGAGAGGUUAUUCCGUCUCACCGAGAUCGGAAGAGCACACGU
B6: target 1 del3,del16 (mixed)
RNA 1: B1 RNA 1
RNA 2: GGGAAUGGAUCCACAUCUACGAAUUCGUACCAUAGGAGGUUAUCCGCCACCGAGAUCGGAAGAGCACACGU
B7: target 1 A9G,G15A (mixed)
RNA 1: B1 RNA 1
RNA 2: B3 RNA 2 with G37A, A39G, A41U, A43G
B8: target 1 insU 3' of 13,insA 3' of 3 (mixed)
RNA 1: B1 RNA 1
RNA 2: B5 RNA 2 with G40U, U41G, A43U, U44A, U49C, C50U, U51A
B9: target 1 insC 3' of 15,insC 3' of 14 (mixed)
RNA 1: B1 RNA 1
RNA 2: GGGAAUGGAUCCACAUCUACGAAUUCGUACCAUAGAGCACGGUUAUCCGCUCACCGAGAUCGGAAGAGCACACGU
B10: target 1 A1C,C7G (mixed)
RNA 1: B1 RNA 1
RNA 2: B3 RNA 2 with A39G, A41U, C45G, A51C
B11: target 1 C2A,C4U (mixed)
RNA 1: B1 RNA 1
RNA 2: B3 RNA 2 with A39G, A41U, C48U, C50A
B12: target 1 insC 3' of 13 (mixed)
RNA 1: B1 RNA 1
RNA 2: B2 RNA 2 with U36A, A37G, G38A, A39G, G40C
B13: target 1 insC 3' of 15 (mixed)
RNA 1: B1 RNA 1
RNA 2: B2 RNA 2 with U36A, A37G, G38C
B14: target 1 U11A,G12U (mixed)
RNA 1: B1 RNA 1
RNA 2: B3 RNA 2 with A39G, G40U
B15: target 1 insU 3' of 18,insA 3' of 17 (mixed)
RNA 1: B1 RNA 1
RNA 2: B9 RNA 2 with G35U, A36G, G37A, C38A, A39G, C40A
B16: target 1 insA 3' of 22,insA 3' of 17 (mixed)
RNA 1: B1 RNA 1
RNA 2: GGGAAUGGAUCCACAUCUACGAAUUCGUACACAUAGAAGAGGUUAUCCGCUCACCGAGAUCGGAAGAGCACACGU
B17: target 1 C7G (mixed)
RNA 1: B1 RNA 1
RNA 2: B3 RNA 2 with A39G, A41U, C45G
B18: target 1 C7G,G17A (mixed)
RNA 1: B1 RNA 1
RNA 2: B3 RNA 2 with G35A, A39G, A41U, C45G
B19: target 1 insC 3' of 13,insC 3' of 8 (mixed)
RNA 1: B1 RNA 1
RNA 2: B5 RNA 2 with G40C, U41G, A43U, U44A, G48C, U49G
B20: target 1 insA 3' of 21,insU 3' of 7 (mixed)
RNA 1: B1 RNA 1
RNA 2: B1 RNA 2 with U33A, A34U, C35A, C47U, G48C, C49G, U50C, C51U, U52C
B21: target 1 A1G,C7G (mixed)
RNA 1: B1 RNA 1
RNA 2: B3 RNA 2 with A39G, A41U, C45G, A51G
B22: target 1 C2G,C7A (mixed)
RNA 1: B1 RNA 1
RNA 2: B3 RNA 2 with A39G, A41U, C45A, C50G
B23: target 1 U3G,G15C (mixed)
RNA 1: B1 RNA 1
RNA 2: B3 RNA 2 with G37C, A39G, A41U, U49G
B24: target 1 insG 3' of 19 (mixed)
RNA 1: B1 RNA 1
RNA 2: B2 RNA 2 with A34G, G35A, U36G
B25: target 1 insG 3' of 18,insC 3' of 18 (mixed)
RNA 1: B1 RNA 1
RNA 2: B9 RNA 2 with A36C, C38A, A39G, C40A
B26: target 1 C4G,U19C (mixed)
RNA 1: B1 RNA 1
RNA 2: B3 RNA 2 with U33C, A39G, A41U, C48G
B27: target 1 insA 3' of 11,insG 3' of 3 (mixed)
RNA 1: B1 RNA 1
RNA 2: B5 RNA 2 with U42A, A43U, U44A, U49C, C50U, U51G
B28: target 1 insA 3' of 22,insA 3' of 22 (mixed)
RNA 1: B1 RNA 1
RNA 2: B16 RNA 2 with C32A, A33C, U34A, A35U, G36A, A37G
B29: target 1 C7A,A20U (mixed)
RNA 1: B1 RNA 1
RNA 2: B3 RNA 2 with A32U, A39G, A41U, C45A
B30: target 1 insU 3' of 22,insA 3' of 6 (mixed)
RNA 1: B1 RNA 1
RNA 2: B16 RNA 2 with A31U, A38G, G39A, A40G, G42U, U44A, A45U, U46C, C48A
B31: target 1 insG 3' of 21,insC 3' of 20 (mixed)
RNA 1: B1 RNA 1
RNA 2: B16 RNA 2 with A31C, C32G, U34C, A35U, G36A, A37G
B32: target 1 insA 3' of 15,insC 3' of 14 (mixed)
RNA 1: B1 RNA 1
RNA 2: B9 RNA 2 with C38A
B33: target 1 insU 3' of 5,insG 3' of 3 (mixed)
RNA 1: B1 RNA 1
RNA 2: B5 RNA 2 with U45C, C47G, G48U, U49C, C50U, U51G

target: T1, EsCas13d, nuclease-dead; experiment: crRNA (strand 1, pre-loaded); Mg2+; 40 mM Tris-HCl pH 7.5, 150 mM NaCl, 6 mM MgCl2, 1 mM DTT, 0.1% Tween-20, 0.2 mg/ml BSA; 25 C; 10 min per concentration, then washed; conditions: tags: His6-TwinStrep-SUMO cleaved; N-terminal SNAP kept (SNAP-Surface 488); label: 3' end held by stalled T7 RNA polymerase

Binder	Kd [nM]
B1	38 ± 7
B2	14.1 ± 1.2
B3	38.5 ± 2.8
B4	36 ± 5
B5	8 ± 1.5
B6	85 ± 31
B7	11.6 ± 0.7
B8	24 ± 3.1
B9	12 ± 1
B10	8.8 ± 0.7
B11	33.5 ± 3.5
B12	9.1 ± 0.4
B13	16.3 ± 0.8
B14	5.1 ± 0.35
B15	54 ± 7
B16	27.5 ± 2
B17	8.8 ± 0.5

Binder	Kd [nM]
B18	49 ± 5
B19	13.1 ± 0.4
B20	40.7 ± 3.1
B21	9.2 ± 0.9
B22	6.22 ± 0.24
B23	34 ± 4
B24	50 ± 4
B25	30.8 ± 1.3
B26	28 ± 6
B27	12.1 ± 0.6
B28	9.9 ± 0.6
B29	45 ± 5
B30	55 ± 16
B31	15.3 ± 1.1
B32	14.8 ± 0.7
B33	12.9 ± 0.9
